Measurements as given in the DeepSol protein solubility set.

Assay: soluble on expression in E. coli; label from the status in PepcDB or PDB records
For “MSLKFIEKMLPEESPIDLLINLSRRGEAAVVLLKDAIEDYFTGKFGEGHLNRVISLERESDEIKSKLKKMYLKMKYTYFEKDDFLYIVHKADEILDVVRDIVIMLDMNRVEDVPENIKELFAELVENVLDTIRETTEAIEQLRTLAESGFSPFEKEKEEREIFDVSMEEREVDTISRNLGKKLYSLKNSMNPVDLIFLNKVARLISKIADQGKDITKRINSILREGHHHHHH”, the “soluble on expression in E. coli” value was “soluble”.
For “MAKKLLLVGGGHSNALVLKHWCRHPLADVELTLVSDVRQTPYSGMLPGYLAGFYSYGESHIDLAPLCASAGAIFVQDKAIAVNPEQNLLTTAEGRQLSFDCLSLDIGSTPFIDDIVGAEYGIPAKPVPQFLTAWLALLENIDQNRPKKVTLAIAGGGAGGVELAFNLQARLAKLFPAMGLDMQIWQRGAILLPHHSVQGRKLIERLLVKQNIAVLLNHPVTSIEPEFSPDDNPLTCYKLWSNDHWQSVNAVFLVTQASPAPWLAQSGLSLDSRGFVSVKPTLQSYSHGHIFAAGDVANMIDHPRPKAGVFAVRQGKPLFENLQHYLSHQTLKTFVPQSKYLSLLGTRDGRAIALWGPWASYGHCWWRLKDYIDRQFMAGFSA”, the “soluble on expression in E. coli” value was “soluble”.
In the case of “MSLQLEYPLTNHMKRNMVLTKENQVIAYYRIRSETVGLTDFEKKRKTKKKVARTLKRLQENEGFEIVLLPVNADIRGKMGGMRQLVDKENHSVAVDKLMKTAQYLENEIGMVYEYIWLIGVPLVKKERSIDIKETFSTALNNLSEKVVKGLGLEVGVAEDWEEAYKDQEQEVYQNLSELLVERLTEDELYYYQAYQFLNNIQHEKKELLTSQNLDNLLANKITPFRGGLELSNEFGKSYIAHLPLGDCGVTIDGNHLLELVQKMSYPVSVKLQAGFAETKGQLALSGRSARARTRTKNIMEEAHLAGSKQKRKIVEGQHSLDDLDQKIDDDIPIIDWKAVLVISGNSKKQLRERKKNLMNRLDSLGIPLIRATFDNVYLFQATLLGNFQRFSTSNWQHTSTLETFSELNFFTSLHAGTKTGFYLGRVDATLEEKESRKQIVSGSKNIVYMNLLLANKQNIEGKKTNNPHWLVSGDTGNGKSVFSKWLFLYSSLLDVKVLYIDPKKEVRQQFMRTINDPEYQRKYPLDVAFIKTFNFVTLDVRKKENHGVLDPIVLFDETEAIATAKAMLNNINEDKWKMPHKTAINETVAEVVAERKAGKQVGFWHVIERLISHSEKDVHEMGRFLLSTIKGSILELAFSHGEVEGLSFEKKVTILEIEDLDLPTDRHDELDENQRLSVTLMFALGTFCSKFGSRNRKEETVTFFDEAWIFQSSPEGQKILKSMKRIGRSFNNFMVLITQSVNDVLDNGDGTGFGTVVCFDEVDNREGILRYLKLPVNEINLKWVSNMIQGQCLMKDMFNQVNRIVIDVIFEEWLELFETVDEGHHHHHH”, the “soluble on expression in E. coli” value is reported as “soluble”.
For “MGSDKIHHHHHHMSGPGTYSPPSSRLQYLGCCAGVAGARLVPGPLGGRFPFSNCVLVEDAGFKVLVDTGCEPWERGLVDVDVVVFTHFHPDHIRGFHRLRAGRVAAPEGEEPYAGRLERLALRFAGERWREWISMARLVMDLEGVPEPGEYFRPGEDLCFRGVCIKTYPARGHLQTHTLLELPGGLVHLVDIDLTGFGPWYGNPEASPELFLLDIEAAAEMEARGYLSAHKDRVYSRGEGVEALARFAGRLVEQAEGVYKALEAAGRPLWPWELTGRGIIYRRYLEGMEAIMSYFEGVMIEKLLGLLGLWGCTRKTPGGYVARDCHLGVIKDRITRNILSLA”, the “soluble on expression in E. coli” value was “not soluble”.
With “MENYLIDNLDRGILEALMGNARTAYAELAKQFGVSPETIHVRVEKMKQAGIITGARIDVSPKQLGYDVGCFIGIILKSAKDYPSALAKLESLDEVTEAYYTTGHYSIFIKVMCRSIDALQHVLINKIQTIDEIQSTETLIVLQNPIMRTIKP” the “soluble on expression in E. coli” value was “soluble”.
With “MSNIIVLSGSPRKGGNTDLLVDAFVKGAEKSNNVEVVSVAYYKVNPCIGCNSCFDRAGHECFQQDDMQIVYDKLKCADVIVVASPVYFYGVSAQLKAIIDRLHTPMRNDFKVKKLALILVGAAVLPELFDSIKIQYQLVLNFFKLEDAGMVLVRGAKDKGDVRNTDGLDEAYRLGLAME” the “soluble on expression in E. coli” value was “not soluble”.
With “MKPVFLDFEQPIAELTNKIDELRFVQDESAVDISDEIHRLQKKSNDLTKSIFSKLTPAQISQVSRHPQRPYTLDYIEALFTDFEELHGDRHFADDYAIVGGLARFNGQSVMVVGHQKGRDTKEKIRRNFGMPRPEGYRKALRLMKTAEKFGLPVMTFIDTPGAYPGIGAEERGQSEAIGKNLYELTRLRVPVLCTVIGEGGSGGALAVALGDYVNMLQYSTYSVISPEGCASILWKTAEKAADAAQALGITADRLQKLDLVDTVIKEPLGGAHRDFGQTMKNVKAVLEKQLHEAQSIPLADLLSRRFDRIMAYGKFSEQ” the “soluble on expression in E. coli” value was “not soluble”.
In the case of “GSHMKNSVSVDLPGSMKVLVSKSSNADGKYDLIATVDALELSGTSDKNNGSGVLEGVKADASKVKLTISDDLGQTTLEVFKSDGSTLVSKKVTRADGTRLEYTGIKSDGSGKAKEVLKGYVLEGTLTAEKTTLVVKEGTVTLSKNISKSGEVSVELNDTDSSAATKKTAAWNSGTSTLTITVNSKKTKDLVFTSSNTITVQQYDSNGTSLEGSAVEITKLDEIKNALK”, the “soluble on expression in E. coli” value is reported as “soluble”.
For “MSANDFKPETWTSSANEALRVSIVGENAVQFSPLFTYPIYGDSEKIYGYKDLIIHLAFDSVTFKPYVNVKYSAKLGDDNIVDVEKKLLSFLPKDDVIVRDEAKWVDCFAEERKTHNLSDVFEKVSEYSLNGEEFVVYKSSLVDDFARRMHRRVQIFSLLFIEAANYIDETDPSWQIYWLLNKKTKELIGFVTTYKYWHYLGAKSFDEDIDKKFRAKISQFLIFPPYQNKGHGSCLYEAIIQSWLEDKSITEITVEDPNEAFDDLRDRNDIQRLRKLGYDAVFQKHSDLSDEFLESSRKSLKLEERQFNRLVEMLLLLNNSPSFELKVKNRLYIKNYDALDQTDPEKAREALQNSFILVKDDYRRIIESINKSQG”, the “soluble on expression in E. coli” value was “not soluble”.
For “MASEKPLAAVTCTAPVNIAVIKYWGKRDEELVLPINSSLSVTLHQDQLKTTTTAVISKDFTEDRIWLNGREEDVGQPRLQACLREIRCLARKRRNSRDGDPLPSSLSCKVHVASVNNFPTAAGLASSAAGYACLAYTLARVYGVESDLSEVARRGSGSACRSLYGGFVEWQMGEQADGKDSIARQVAPESHWPELRVLILVVSAEKKLTGSTVGMRASVETSPLLRFRAESVVPARMAEMARCIRERDFPSFAQLTMKDSNQFHATCLDTFPPISYLNAISWRIIHLVHRFNAHHGDTKVAYTFDAGPNAVIFTLDDTVAEFVAAVWHGFPPGSNGDTFLKGLQVRPAPLSAELQAALAMEPTPGGVKYIIVTQVGPGPQILDDPCAHLLGPDGLPKPAA”, the “soluble on expression in E. coli” value was “soluble”.
For “MSLLSKDIKLLPGSKVEVVIRVSKNVIQEKYNSLLQDYSSRLKIQGFRIGKVPINVIENKYSEGLKATVLEEVINNSFKEFFKEESKIPLSYATPTVKEKNLKLNLDKDFEFTFTYETYPEFKIPSFDEIDIKVEIPEVFIDDSDIDDEIKNLQIENSIIIEDEEGVVKEDSIVKVDFVELDDLSNEIVSTKRQGFVFTVGKSETYYDFDKDVIGMRINEERVIEKSYIADYKFEELAGSSRKLKIKIKSIKKRDLPLIDDEFAQDISDKYNTLDDLKNFIRSSLLNIVEEKKETLKLNKFFSTISEKLEIDIPHSMIEAEIEIAFKDAKRQNKNNMSLEEFKSIFYSSGYIGGDNLKDEILGNLKSKLIMQKMVDLDPIKVTESDVEDEMARQSKNLGVSYEEIKKFYEDQNLISYLKDDIKRERAKKKILENLKEVKGKKLNFRDFVNYKIEGHHHHHH”, the “soluble on expression in E. coli” value was “soluble”.
In the case of “MGHHHHHHSHALQVDISDALSERDKVKFTVHTKSSLPNFKQNEFSVVRQHEEFIWLHDSFVENEDYAGYIIPPAPPRPDFDASREKLQKLGEGEGSMTKEEFTKMKQELEAEYLAIFKKTVAMHEVFLCRVAAHPILRRDLNFHVFLEYNQDLSVRGKNKKEKLEDFFKNMVKSADGVIVSGVKDVDDFFEHERTFLLEYHNRVKDASAKSDRMTRSHKSAADDYNRIGSSLYALGT”, the “soluble on expression in E. coli” value is reported as “not soluble”.
In the case of “MSLRGALAGMLALGCLTTSTLAFERWTLEARGKSGYDAPKLEWVEGKTINEIKNPTIQYALPKFEGDVFWDTINAKPVVPDSIYGEFVQYGYELFVNTQAVIGPEVADPNMRYSGNNLSCNSCHLGAGTAKYAAPLVDNHANFPQYRNRENSLGTMAARVNGCMQRSMNGYPLPAEGKEMKAFLAYIHWLGQGIPVGAKIEGRSLKTVDRKMVQQNAADVKNGAEVYARDCASCHGAEGEGLRRESKDGKPAGYEFPPLWGSDDTYNTGAGMYRTLKAADFIKSTMPKGAPTLSDKDAYDVAAFINDYSHYRTVKLNRQNDFVDPKVRVPDHDQPGPYGPEGSYIFPDEGKTQMDYKVGPYKGIIKQKPAAKEGHHHHHH”, the “soluble on expression in E. coli” value is reported as “not soluble”.
With “MSLSVPLLSRVGADRADRLRTDMEAAAAGWPGAALLRVDSRNRVLVANGRVLLGAAIELADKPPPEAVFLGRVEGGRHVWAVRAALQPIADPDIPAEAVDLRGLGRIMDDTSSQLVSSASALLNWHDNARFSALDGAPTKPARAGWSRVNPITGHEEFPRIDPAVICLVHDGADRAVLARQAAWPERMFSLLAGFVEAGESFEVCVAREIREEIGLTVRDVRYLGSQQWPFPRSLMVGFHALGDPDEEFSFSDGEIAEAAWFTRDEVRAALAAGDWSSASESKLLLPGSISIARVIIESWAACEEGHHHHHH” the “soluble on expression in E. coli” value was “soluble”.
With “RQTHYLIHSDLGFRTRGVLWISNTVDSVPKGILRAELEKIPGVEKVSYACGNPIRYLNNMSFTKDGVNVSTWEMVVDSVFFDFFEISPIPLTDEPVETFFDREKMRAARIIPEWGNMKMINAVRPDPETGIFTQGDDDNDEVKYRMVGRIPDLKYKPLNMEQSPLQIRPLYAREQPWVTLVRASDEADKSAVLAAVSDTYKRVTGAEDIEPLWAEDIILDRYKSQTNLSQ” the “soluble on expression in E. coli” value was “not soluble”.
In the case of “MSAIEVKNLVKKFHGQTVLHGIDLEVKPGEVVAIIGPSGSGKTTLLRSINLLEQPEAGTITVGDITIDTARSLSQQKSLIRQLRQHVGFVFQNFNLFPHRTVLENIIEGPVIVKGEPKEEATARARELLAKVGLAGKETSYPRRLSGGQQQRVAIARALAMRPEVILFDEPTSALDPELVGEVLNTIRQLAQEKRTMVIVTHEMSFARDVADRAIFMDQGRIVEQGAAKALFADPEQPRTRQFLEKFLLQ”, the “soluble on expression in E. coli” value is reported as “soluble”.
In the case of “MSLSEQHIDPTRLRMDELVVALTDRETELAAAEGRIRELEREVSELRRSLNSPSQEAELERLRLLAGTTAVTGPGVVVTLSETPEAVTAKNRVADEDIWRVVNELYTAGAEAIAVGGVRLTSVSGIRNVGERILVGETMIASPVEIHAIGDPAVLDASLKLRGGVIDLLARWGIKVTVVKSDSLTLPPLKTQPAFRYAKPAESAGSEGHHHHHH”, the “soluble on expression in E. coli” value is reported as “soluble”.
In the case of “MGSDKIHHHHHHMVTTRKPLRAAIIGLGRLGERHARHLVNKIQGVKLVAACALDSNQLEWAKNELGVETTYTNYKDMIDTENIDAIFIVAPTPFHPEMTIYAMNAGLNVFCEKPLGLDFNEVDEMAKVIKSHPNQIFQSGFMRRYDDSYRYAKKIVDNGDIGKIIYMRGYGIDPISGMESFTKFATEADSGGIFVDMNIHDIDLIRWFTGQDPVQAYGLTSNIAAPQLADIGEFETGVAQLKMSDGVIATLIGGRHAAHGNQVELEVMGSNGWVRIGEHPDLNRVTVFNDQGVVRPSLQSFGERFDTAFTDEVQDFVNNVIVGKQPEVTVDDGIKALKIAKACQQSANIGKLVDIQL”, the “soluble on expression in E. coli” value is reported as “not soluble”.
In the case of “PNRLAEAGSRYLRQHSCDPVDWMPWGAEAFEKARRLDKPVFVSVGYSSCHWCHVMQRESFSDPMVAEVLNRAFVMVKVDREERPDVDTLLMRYCAIASGSCGWPLNVLLTPDGKPFYVATYLPKESLVALAVSLERVWRERRAEVLEVAERAGGLLEQHRLAFTPGR”, the “soluble on expression in E. coli” value is reported as “not soluble”.
